Results on one molecule are retold here after US20230159643A1 (H LUNDBECK A S, published 2023).

For orientation: EC50 means the midpoint of the concentration-response curve. Read a low EC50 as a more potent agent.

Assay in all cases: BLI Octet 384RED, antibody on Protein A sensor, Sortilin construct in solution
Experiment [1] has as its target T1, Sortilin SORTECDBAP_hB12390 (human/tetraodon chimera).
T1 construct: Shuffle construct
T1 chain: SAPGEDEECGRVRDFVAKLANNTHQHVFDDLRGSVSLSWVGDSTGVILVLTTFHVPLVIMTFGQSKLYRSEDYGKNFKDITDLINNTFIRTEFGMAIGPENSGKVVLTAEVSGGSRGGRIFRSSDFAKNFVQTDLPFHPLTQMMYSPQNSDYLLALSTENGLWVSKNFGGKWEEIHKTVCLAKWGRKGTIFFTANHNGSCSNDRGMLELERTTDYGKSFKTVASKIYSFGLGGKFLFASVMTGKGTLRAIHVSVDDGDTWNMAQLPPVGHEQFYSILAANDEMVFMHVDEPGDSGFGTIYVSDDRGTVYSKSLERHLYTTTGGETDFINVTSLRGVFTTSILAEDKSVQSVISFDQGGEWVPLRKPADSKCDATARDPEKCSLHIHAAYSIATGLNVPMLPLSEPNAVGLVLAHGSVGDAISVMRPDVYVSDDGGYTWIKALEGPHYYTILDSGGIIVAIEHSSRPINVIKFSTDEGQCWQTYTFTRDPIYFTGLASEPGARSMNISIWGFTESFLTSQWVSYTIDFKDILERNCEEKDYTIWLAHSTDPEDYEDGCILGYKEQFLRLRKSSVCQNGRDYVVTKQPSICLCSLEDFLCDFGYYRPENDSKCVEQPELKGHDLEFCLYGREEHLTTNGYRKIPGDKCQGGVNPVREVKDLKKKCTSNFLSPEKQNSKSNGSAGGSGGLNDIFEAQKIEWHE
The protocol: (§1) Binding kinetics of anti-Sortilin HuMab antibodies to Sortilin were determined using Octet 384RED (Fortebio, Menlo Park, USA). HuMab solutions of 2 μg/ml were made by dilution in sample diluent (ForteBio, art. No. 18-5028). Prot A sensors (ForteBio, art. no. 18-0004) were prewetted with kinetics buffer (1:10 sample diluent in PBS) for at least 600 seconds. Subsequently sensors were immobilized with HuMab solution for 600 seconds. A baseline response was obtained by dipping in kinetics buffer for 120 seconds. Association of SORTECD constructs was performed during a 1000 seconds incubation. This was followed by dissociation in kinetics buffer for 100 seconds. After dissociation, sensors were regenerated (10 mM Glycine pH 1.0) and neutralized (kinetics buffer) 3 times for 5 seconds. […] A molecular weight of 76.8 kDA was used for SORTECDHis. Data was fitted with ForteBio Analysis 6.4 software, using a global full fit.

The target of experiment [2] is T2, Sortilin SORTECDBAP_tetra (tetraodon).
T2 construct: Fully tetraodon Sortilin ECD with BAP tag; also called tetraodon Sortilin
T2 chain: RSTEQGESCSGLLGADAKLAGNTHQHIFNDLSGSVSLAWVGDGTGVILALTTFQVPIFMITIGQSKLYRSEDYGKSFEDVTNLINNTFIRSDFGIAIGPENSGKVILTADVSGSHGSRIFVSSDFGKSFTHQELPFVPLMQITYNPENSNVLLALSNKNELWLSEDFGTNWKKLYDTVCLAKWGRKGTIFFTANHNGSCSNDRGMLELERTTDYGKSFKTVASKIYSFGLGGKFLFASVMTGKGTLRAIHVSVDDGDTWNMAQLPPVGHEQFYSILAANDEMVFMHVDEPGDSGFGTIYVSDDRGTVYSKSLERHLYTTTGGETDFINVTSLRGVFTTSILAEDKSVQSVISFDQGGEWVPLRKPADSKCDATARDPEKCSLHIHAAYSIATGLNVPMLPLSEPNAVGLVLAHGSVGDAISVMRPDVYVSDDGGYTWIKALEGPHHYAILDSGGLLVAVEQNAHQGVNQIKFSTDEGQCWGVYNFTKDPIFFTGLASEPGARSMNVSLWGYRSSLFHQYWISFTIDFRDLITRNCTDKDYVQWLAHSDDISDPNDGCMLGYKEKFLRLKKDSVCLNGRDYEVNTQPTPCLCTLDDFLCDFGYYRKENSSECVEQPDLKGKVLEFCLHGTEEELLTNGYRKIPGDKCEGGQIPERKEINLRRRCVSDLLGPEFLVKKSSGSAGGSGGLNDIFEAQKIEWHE
The protocol:
as §1

Experiment [3] has as its target T3, Sortilin SORTECDBAP_hB01-05 (human/tetraodon chimera).
T3 construct: Shuffle construct
T3 chain: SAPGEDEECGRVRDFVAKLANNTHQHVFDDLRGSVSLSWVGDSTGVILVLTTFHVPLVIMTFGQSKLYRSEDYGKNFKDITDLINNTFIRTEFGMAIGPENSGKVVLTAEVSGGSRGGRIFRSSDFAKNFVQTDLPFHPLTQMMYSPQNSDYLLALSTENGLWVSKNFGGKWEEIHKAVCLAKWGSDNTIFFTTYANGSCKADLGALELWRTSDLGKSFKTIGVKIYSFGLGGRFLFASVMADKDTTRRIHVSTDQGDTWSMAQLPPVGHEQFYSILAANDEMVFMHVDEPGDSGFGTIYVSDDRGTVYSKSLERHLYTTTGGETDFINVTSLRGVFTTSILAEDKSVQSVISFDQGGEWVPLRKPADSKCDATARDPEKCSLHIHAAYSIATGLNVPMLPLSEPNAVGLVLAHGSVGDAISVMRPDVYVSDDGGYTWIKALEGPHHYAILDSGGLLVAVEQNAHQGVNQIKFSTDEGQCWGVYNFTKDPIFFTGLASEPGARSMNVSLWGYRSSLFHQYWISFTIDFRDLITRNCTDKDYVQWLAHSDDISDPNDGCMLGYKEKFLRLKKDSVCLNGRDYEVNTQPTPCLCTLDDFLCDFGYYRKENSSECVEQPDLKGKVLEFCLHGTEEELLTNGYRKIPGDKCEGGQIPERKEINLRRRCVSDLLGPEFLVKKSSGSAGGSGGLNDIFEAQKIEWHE
The protocol: as §1

B1: 1320 (antibody, V domains shown)
VH: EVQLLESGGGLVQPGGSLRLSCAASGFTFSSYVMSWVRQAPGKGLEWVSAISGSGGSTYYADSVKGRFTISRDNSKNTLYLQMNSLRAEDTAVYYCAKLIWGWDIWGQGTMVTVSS
VL: EIVLTQSPATLSLSPGERATLSCRASQSVSSYLAWYQQRPGQAPRLLIYDASNRATGIPARFSGSGSGTDFTLSISSLEPEDFAVYYCQQRTNWSITFGQGTRLEIK
notes: also called IgG1-6003-1320; Antibody 1320
Regarding B1, in experiment [1], the response was half-maximal at 0.0123 µg/mL (EC50). In addition, the binding result in experiment [2] and in experiment [3] was “no binding (tested: 10 µg/ml construct)” in each case.
